Measurements from patent publication US20200115460A1 (TEIJIN PHARMA, published 2020).

Columns and labels:
[1] = target: T1, Substitution 3 of the CR domain (human IGF-I receptor G315S/S316T, FLAG tag) (human, UniProt P08069 31-1367); assay: Cell ELISA on HEK 293T cells expressing the substitution
T1 construct: Expressed on transfected HEK 293T cells
Procedure: HEK 293T cells were seeded in a 10-cm dish coated with poly-D-lysine at 9×10⁶ cells/well. On the next day, each plasmid DNA was transfected into the cells by lipofection. On the following day, the HEK 293T cells were detached with 0.25% trypsin/EDTA and were suspended in a broth. The HEK 293T cells were added to a 96-well plate (coated with poly-D-lysine) at a concentration of 0.8×10⁵ cells/well and were incubated at 37° C. under conditions of 5% CO₂ overnight. The medium was removed from the 96-well plate, and the cells were immobilized with a 10% buffered formalin (Mildform® 10 NM, Wako). The 10% buffered formalin was replaced with a blocking buffer (3% BSA/PBS/sodium azide), and the plate was used in ELISA.
After washing with a washing liquid twice, anti-mouse-IgG antibody-HRP conjugate solutions (50 μL) adjusted to predetermined concentrations with 0.1% skimmed milk/3% BSA/PBS were added to respective wells and were subjected to reaction at room temperature for about 1 hour. After washing with a washing liquid twice, 100 μL of a substrate (TMB) was added to each well to start the reaction. After about 30 minutes, 100 μL of 0.5 M sulfuric acid was added to each well to stop the reaction, and the absorbances at 450 nm was measured. The value of the absorbance at 450 nm was evaluated as the avidity.

rabbit IGF-I receptor = target: T2, rabbit IGF-I receptor (rabbit); assay: Cell ELISA, 10 nM antibody, fixed P3U1 cells expressing the receptor
T2 construct: Expressed on transfected P3U1 cells; also called XP_017193273
T2 sequence (chain, as listed by the source limits assumed): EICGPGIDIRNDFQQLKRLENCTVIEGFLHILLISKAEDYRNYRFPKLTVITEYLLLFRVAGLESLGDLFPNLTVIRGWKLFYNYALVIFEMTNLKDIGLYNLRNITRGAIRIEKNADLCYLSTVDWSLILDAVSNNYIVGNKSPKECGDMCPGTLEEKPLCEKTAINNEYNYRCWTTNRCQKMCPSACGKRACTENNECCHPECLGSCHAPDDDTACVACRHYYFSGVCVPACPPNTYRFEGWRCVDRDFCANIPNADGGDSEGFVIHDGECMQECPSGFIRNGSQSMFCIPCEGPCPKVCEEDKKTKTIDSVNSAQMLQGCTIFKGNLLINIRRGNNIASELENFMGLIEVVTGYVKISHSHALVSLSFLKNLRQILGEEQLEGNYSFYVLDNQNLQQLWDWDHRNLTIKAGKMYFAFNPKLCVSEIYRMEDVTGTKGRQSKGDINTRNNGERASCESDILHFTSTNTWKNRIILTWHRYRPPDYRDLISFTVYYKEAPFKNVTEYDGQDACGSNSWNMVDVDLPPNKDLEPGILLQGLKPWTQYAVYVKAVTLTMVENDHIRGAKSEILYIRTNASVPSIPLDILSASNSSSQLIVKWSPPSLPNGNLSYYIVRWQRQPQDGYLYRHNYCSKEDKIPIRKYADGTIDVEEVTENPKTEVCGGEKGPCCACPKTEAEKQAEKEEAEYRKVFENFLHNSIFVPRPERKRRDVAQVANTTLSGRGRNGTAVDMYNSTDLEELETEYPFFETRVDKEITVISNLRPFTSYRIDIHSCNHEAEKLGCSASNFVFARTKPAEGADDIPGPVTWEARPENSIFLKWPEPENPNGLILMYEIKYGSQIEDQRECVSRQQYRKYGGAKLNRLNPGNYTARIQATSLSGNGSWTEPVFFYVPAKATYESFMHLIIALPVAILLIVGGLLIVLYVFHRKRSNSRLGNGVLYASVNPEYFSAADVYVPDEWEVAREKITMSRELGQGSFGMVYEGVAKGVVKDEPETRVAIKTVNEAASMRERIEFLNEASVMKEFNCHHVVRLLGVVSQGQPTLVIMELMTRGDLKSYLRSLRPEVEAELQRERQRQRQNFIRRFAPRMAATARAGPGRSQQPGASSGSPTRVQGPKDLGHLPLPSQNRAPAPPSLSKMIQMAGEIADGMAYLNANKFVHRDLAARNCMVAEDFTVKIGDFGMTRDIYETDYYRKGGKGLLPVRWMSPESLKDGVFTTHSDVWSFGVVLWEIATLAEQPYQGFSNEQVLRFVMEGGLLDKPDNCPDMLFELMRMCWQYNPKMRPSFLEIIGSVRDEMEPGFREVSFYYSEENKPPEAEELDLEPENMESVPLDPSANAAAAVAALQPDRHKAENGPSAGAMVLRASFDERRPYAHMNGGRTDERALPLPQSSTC
Procedure: (§1) After the lipofection, the P3U1 cells were cultured at least overnight and were added to a 96-well plate (coated with poly-D-lysine) at a concentration of 0.8×10⁵ cells/well and immobilized with 10% buffered formalin (Mildform® 10 NM, Wako), followed by blocking with phosphate buffer containing 3% BSA. The resulting plate was used for ELISA.
(§2) After washing with a washing liquid twice, anti-mouse-IgG antibody-HRP conjugate solutions (30 μL) adjusted to predetermined concentrations with 0.1% skimmed milk/3% BSA/PBS were added to respective wells and were subjected to reaction at room temperature for about 1 hour. After washing with a washing liquid twice, 50 μL of a substrate (TMB) was added to each well to start the reaction. After about 20 minutes, 50 μL of 0.5 M sulfuric acid was added to each well. The absorbances at 450 nm and 550 nm were measured, and the difference between absorbance values at 450 nm and 550 nm was calculated.

[2] = target: T3, cynomolgus monkey IGF-I receptor (cynomolgus monkey, UniProt P08069 31-1367 (human entry)); assay: as above
T3 construct: Expressed on transfected P3U1 cells; also called NP_001248281
Procedure: as §1, §2

rat IGF-I receptor = target: T4, rat IGF-I receptor (rat, UniProt P24062 31-1370); assay: as above
T4 construct: Expressed on transfected P3U1 cells; also called NP_494694
T4 sequence (P24062 31-1370 limits assumed): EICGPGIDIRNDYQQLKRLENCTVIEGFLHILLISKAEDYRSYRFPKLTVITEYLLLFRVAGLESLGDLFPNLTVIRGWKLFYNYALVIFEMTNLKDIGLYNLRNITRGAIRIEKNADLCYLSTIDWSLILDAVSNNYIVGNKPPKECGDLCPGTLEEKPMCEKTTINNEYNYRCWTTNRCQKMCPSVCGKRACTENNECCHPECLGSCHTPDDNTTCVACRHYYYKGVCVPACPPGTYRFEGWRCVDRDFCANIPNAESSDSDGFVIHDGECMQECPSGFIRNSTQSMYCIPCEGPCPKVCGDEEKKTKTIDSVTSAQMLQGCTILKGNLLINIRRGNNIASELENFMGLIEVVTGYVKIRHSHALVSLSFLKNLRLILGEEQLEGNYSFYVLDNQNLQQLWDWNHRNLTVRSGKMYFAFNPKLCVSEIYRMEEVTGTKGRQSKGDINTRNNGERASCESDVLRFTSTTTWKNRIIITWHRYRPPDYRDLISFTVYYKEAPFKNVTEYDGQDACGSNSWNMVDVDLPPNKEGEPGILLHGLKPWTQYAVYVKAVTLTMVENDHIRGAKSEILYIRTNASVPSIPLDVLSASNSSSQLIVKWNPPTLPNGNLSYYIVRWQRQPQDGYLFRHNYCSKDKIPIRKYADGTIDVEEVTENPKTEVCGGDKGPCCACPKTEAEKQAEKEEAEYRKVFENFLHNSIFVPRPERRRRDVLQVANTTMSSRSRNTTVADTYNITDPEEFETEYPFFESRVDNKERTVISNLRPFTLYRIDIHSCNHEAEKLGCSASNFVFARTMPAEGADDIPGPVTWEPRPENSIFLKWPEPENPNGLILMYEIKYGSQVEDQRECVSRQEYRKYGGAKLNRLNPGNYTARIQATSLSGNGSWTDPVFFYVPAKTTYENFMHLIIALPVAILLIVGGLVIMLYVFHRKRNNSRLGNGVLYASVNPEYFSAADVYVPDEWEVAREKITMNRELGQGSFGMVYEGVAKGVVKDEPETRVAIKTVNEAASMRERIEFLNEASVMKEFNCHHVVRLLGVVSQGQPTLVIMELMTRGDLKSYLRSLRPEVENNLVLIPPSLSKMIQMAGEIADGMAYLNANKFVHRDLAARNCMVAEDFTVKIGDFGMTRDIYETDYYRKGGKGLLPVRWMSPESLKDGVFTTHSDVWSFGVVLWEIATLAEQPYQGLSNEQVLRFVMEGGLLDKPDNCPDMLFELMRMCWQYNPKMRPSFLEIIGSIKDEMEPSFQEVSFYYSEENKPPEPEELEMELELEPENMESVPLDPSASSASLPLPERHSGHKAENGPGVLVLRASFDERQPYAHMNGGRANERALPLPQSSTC
Procedure: as §1, §2

[3] = target: T5, guinea pig IGF-I receptor (guinea pig, UniProt P08069 31-1367 (human entry)); assay: as above
T5 construct: Expressed on transfected P3U1 cells, or native on guinea pig myoblasts; also called XP_003475316
Procedure: as §1, §2

mouse IGF-I receptor = target: T6, mouse IGF-I receptor (mouse, UniProt Q60751 31-1373); assay: as above
T6 construct: Expressed on transfected P3U1 cells; also called NP_034643
T6 sequence (Q60751 other isoform, or with tags, fused parts or gaps limits assumed): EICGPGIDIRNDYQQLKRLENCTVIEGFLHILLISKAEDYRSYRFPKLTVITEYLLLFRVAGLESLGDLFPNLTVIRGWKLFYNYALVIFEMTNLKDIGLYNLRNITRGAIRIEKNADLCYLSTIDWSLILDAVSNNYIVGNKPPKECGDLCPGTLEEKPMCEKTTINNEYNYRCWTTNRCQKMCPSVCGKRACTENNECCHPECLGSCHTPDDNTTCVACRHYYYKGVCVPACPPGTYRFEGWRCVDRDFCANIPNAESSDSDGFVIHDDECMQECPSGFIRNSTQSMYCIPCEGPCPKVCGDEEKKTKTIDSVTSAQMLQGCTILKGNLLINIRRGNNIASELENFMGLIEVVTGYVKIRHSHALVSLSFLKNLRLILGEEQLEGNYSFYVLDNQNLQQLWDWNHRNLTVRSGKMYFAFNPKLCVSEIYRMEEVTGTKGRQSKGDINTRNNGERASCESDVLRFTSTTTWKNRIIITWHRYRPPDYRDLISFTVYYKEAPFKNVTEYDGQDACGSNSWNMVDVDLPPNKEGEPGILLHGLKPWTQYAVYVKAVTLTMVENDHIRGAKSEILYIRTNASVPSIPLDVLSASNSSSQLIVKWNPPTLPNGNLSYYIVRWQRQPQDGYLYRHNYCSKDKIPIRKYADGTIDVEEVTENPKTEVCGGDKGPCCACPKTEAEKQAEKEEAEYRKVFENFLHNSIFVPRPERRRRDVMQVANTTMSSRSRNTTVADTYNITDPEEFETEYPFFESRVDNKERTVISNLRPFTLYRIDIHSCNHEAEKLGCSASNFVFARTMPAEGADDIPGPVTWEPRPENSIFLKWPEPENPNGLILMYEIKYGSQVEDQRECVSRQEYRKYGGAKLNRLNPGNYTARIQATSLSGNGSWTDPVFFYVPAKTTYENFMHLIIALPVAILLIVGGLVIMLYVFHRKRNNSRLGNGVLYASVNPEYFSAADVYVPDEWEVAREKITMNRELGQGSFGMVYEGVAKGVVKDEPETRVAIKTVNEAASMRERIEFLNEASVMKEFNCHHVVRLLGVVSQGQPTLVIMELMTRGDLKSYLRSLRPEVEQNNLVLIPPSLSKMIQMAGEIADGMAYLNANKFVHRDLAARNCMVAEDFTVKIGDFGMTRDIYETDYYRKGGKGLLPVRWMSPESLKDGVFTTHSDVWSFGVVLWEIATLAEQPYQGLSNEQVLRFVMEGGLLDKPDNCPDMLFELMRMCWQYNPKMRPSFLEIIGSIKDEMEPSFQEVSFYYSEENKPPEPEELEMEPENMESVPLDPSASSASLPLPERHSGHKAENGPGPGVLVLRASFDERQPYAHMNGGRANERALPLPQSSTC
Procedure: as §1, §2

human IGF-I receptor = target: T7, human IGF-I receptor (human, UniProt P08069 31-1367); assay: as above
T7 construct: Expressed on transfected P3U1 or HEK 293T cells, or native on human myoblasts; also called hIGFIR; IGF-I receptor of human (NP_000866)
Procedure: as §1, §2

[4] = target: T8, recombinant human IGF-I receptor His tag (305-GR-050, R&D SYSTEMS) (human, UniProt P08069 31-932, limits assumed); assay: SPR, Biacore T200
T8 construct: Bought protein, captured on an anti-His antibody chip; also called IGF-IR-His; not shown: His tag
Procedure: The sensor chip CM3 immobilized with the anti-His monoclonal antibody was set to Biacore T200, the reaction temperature was set to 36° C., and a running buffer (HBS-EP+, BR-1006-69, GE) was fed at a flow rate 30 μL/min. The amount of the binding ligand was set to about 100 RU, and IGF-IR-His (0.5 to 2×10⁻⁸ mol/L) was added to the sensor chip to be captured by the anti-His monoclonal antibody. Ctrl IgG2a (10 nmol/L) was allowed to react for 1 minute, and HBS-EP+ was fed at a flow rate of 30 μL/min for at least 10 minutes. The analyte and HBS-EP+ were added to flow cells (1 and 2) and flow cells (3 and 4), respectively.
The reaction conditions were set to a binding time of 600 seconds and a dissociation time of 600 seconds. After completion of the reaction, washing was performed with regeneration buffer 1 (0.2% SDS), regeneration buffer 2 (100 mmol/L Tris-HCl (pH 8.5), 1 mol/L NaCl, 15 mmol/L MgCl₂), and regeneration buffer 3 (10 mmol/L glycine-HCl (pH 1.5)) for 1 minute each at a flow rate of 30 μL/min.

binding result [1]: no binding (tested: 1 nM) | Avidity (absorbance difference 450-550 nm, Mock cells = 1) (rabbit IGF-I receptor): 5.4 fold of Mock cells | Avidity (absorbance difference 450-550 nm, Mock cells = 1) [2]: 5.4 fold of Mock cells | Avidity (absorbance difference 450-550 nm, Mock cells = 1) (rat IGF-I receptor): 1 fold of Mock cells | Avidity (absorbance difference 450-550 nm, Mock cells = 1) [3]: 5.3 fold of Mock cells | Avidity (absorbance difference 450-550 nm, Mock cells = 1) (mouse IGF-I receptor): 0.9 fold of Mock cells | Avidity (absorbance difference 450-550 nm, Mock cells = 1) (human IGF-I receptor): 5.4 fold of Mock cells | KD relative to that of IGF-I [4]: < 0.02 fold of IGF-I | ka relative to that of IGF-I [4]: ~0.2 fold of IGF-I | kd relative to that of IGF-I [4]: < 0.001 fold of IGF-I
B1: IGF11-16 (antibody, mouse IgG1, kappa, V domains shown)
VH: QIQLQQPGAELVKPGASVKLSCKAPGYTFTSYWMHWVKQRPGQGLEWIGETNPSNSVTNYNEKFKSKATLTVDKSSSTAYMQLSSLTSEDSAVYYCTIGRGRGFAYWGQGTLVTVSA
VL: DIQMNQSPSSLSASLGDTITITCRASQNINFWLSWCQQKPGNIPKLLIYKASNLHTGVPSRFSGSGSGTDFTLTISSLQPEDIATYYCLQGQSYPYTFGGGTKLEIKR
notes: no cleavage site is stated; also called IGF-I receptor agonist antibody; IGF11-16 antibody
